Assay results from patent US12295987B2, “Method of using a GIP/GLP1 co-agonist for diabetes” (Eli Lilly and Company, priority 2018, dated 2025).

Biological target: T1, human gastric inhibitory peptide receptor (hGIPR) (Homo sapiens, UniProt P48546)
T1 construct: expressed in transfected cells; host or cells: HEK293
T1 sequence (P48546 22-466): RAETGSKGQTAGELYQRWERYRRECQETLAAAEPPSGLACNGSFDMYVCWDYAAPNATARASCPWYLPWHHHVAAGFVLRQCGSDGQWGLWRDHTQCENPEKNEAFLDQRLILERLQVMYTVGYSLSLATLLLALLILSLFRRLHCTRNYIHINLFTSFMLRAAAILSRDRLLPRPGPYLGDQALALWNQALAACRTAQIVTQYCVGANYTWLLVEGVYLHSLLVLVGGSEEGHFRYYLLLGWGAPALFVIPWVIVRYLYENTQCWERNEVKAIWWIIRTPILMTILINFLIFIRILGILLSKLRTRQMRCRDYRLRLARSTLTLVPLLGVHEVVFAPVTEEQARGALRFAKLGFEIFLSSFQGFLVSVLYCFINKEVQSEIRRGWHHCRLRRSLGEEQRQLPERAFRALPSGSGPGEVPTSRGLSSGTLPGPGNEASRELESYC
Assay: cAMP pharmacological functional assay in presence of 0.1% casein, hGIPR
Assay type: cell-based
Settings: ratio of hGIPR to hGLP1R cAMP EC50 ratios

In order of falling “[hGIPR/hGLP1R] EC50 Ratio” value:
1. Y-Aib-EGT-αMeF(2F)-TSDYSI-αMeL-LDEK((2-[2-(2-Amino-ethoxy)-ethoxy]-acetyl)2-(γGlu)-CO—(CH2)14—CO2H)AQ-Aib-EFI-(D-Glu)-YLIEGGPSSGAPPPS-NH2 (YXEGTXTSDYSIXLDEKAQXEFIXYLIEGGPSSGAPPPS; Aib, αMeF(2F), αMeL, D-Glu; lipidated K; amide; (2)..(2) Xaa at position 2 is Aib; (6)..(6) Xaa at position 6 is alpha-methyl-Phe(2F); (13)..(13) Xaa at position 13 is alpha-methyl-Leu; MOD_RES (17)..(17) Lys at position 17 is chemically modified by conjugation of the epsilon-amino group of the Lys side chain with (2-[2-(2-amino-ethoxy)-ethoxy]-acetyl)2-(gamma-Glu)-CO-(CH2)14- CO2H; (20)..(20) Xaa at position 20 is Aib; (24)..(24) Xaa at positi) [Peptide 208]  9.08
2. Y-Aib-EGT-αMeF(2F)-TSDLSI-αMeL-LD-Orn-K((2-[2-(2-Amino-ethoxy)-ethoxy]-acetyl)2-(γGlu)-CO—(CH2)16—CO2H)AQ-Aib-TFI-(D-Glu)-αMeY-LIEGGPSSGAPPPS-NH2 (YXEGTXTSDLSIXLDXKAQXTFIXXLIEGGPSSGAPPPS; Aib, Orn, αMe residues, lipidated Lys, D-Glu, amide; (2)..(2) Xaa at position 2 is Aib; (6)..(6) Xaa at position 6 is alpha-methyl-Phe(2F); (13)..(13) Xaa at position 13 is alpha-methyl-Leu; (16)..(16) Xaa at position 16 is Orn; MOD_RES (17)..(17) Lys at position 17 is chemically modified by conjugation of the epsilon-amino group of the Lys side chain with (2-[2-(2-amino-ethoxy)-ethoxy]-acetyl)2-(gamma-Glu)-CO-(CH2)16- CO2H; (20)..(20) Xaa at positi) [Peptide 243]  7.12
3. Y-Aib-EGT-αMeF(2F)-TSDYSI-αMeL-LDHK((2-[2-(2-Amino-ethoxy)-ethoxy]-acetyl)2-(γGlu)-CO—(CH2)18—CO2H)AQ-Aib-EFI-(D-Glu)-YLIEGGPSSGAPPPS-NH2 (YXEGTXTSDYSIXLDHKAQXEFIXYLIEGGPSSGAPPPS; Aib, αMe residues, lipidated Lys, D-Glu, C-terminal amide; (2)..(2) Xaa at position 2 is Aib; (6)..(6) Xaa at position 6 is alpha-methyl-Phe(2F); (13)..(13) Xaa at position 13 is alpha-methyl-Leu; MOD_RES (17)..(17) Lys at position 17 is chemically modified by conjugation of the epsilon-amino group of the Lys side chain with (2-[2-(2-amino-ethoxy)-ethoxy]-acetyl)2-(gamma-Glu)-CO-(CH2)18- CO2H; (20)..(20) Xaa at position 20 is Aib; (24)..(24) Xaa at positi) [Peptide 230]  5.53
4. Y-Aib-EGT-αMeF(2F)-TSDYSI-αMeL-LD-Dab-K((2-[2-(2-Amino-ethoxy)-ethoxy]-acetyl)2-(γGlu)-CO—(CH2)16—CO2H)AQ-Aib-EFI-(D-Glu)-YLIEGGPSSGAPPPS-NH2 (YXEGTXTSDYSIXLDXKAQXEFIXYLIEGGPSSGAPPPS; Aib, αMeF(2F), αMeL, Dab, D-Glu; lipidated K; amide; (2)..(2) Xaa at position 2 is Aib; (6)..(6) Xaa at position 6 is alpha-methyl-Phe(2F); (13)..(13) Xaa at position 13 is alpha-methyl-Leu; (16)..(16) Xaa at position 16 is Dab; MOD_RES (17)..(17) Lys at position 17 is chemically modified by conjugation of the epsilon-amino group of the Lys side chain with (2-[2-(2-amino-ethoxy)-ethoxy]-acetyl)2-(gamma-Glu)-CO-(CH2)16- CO2H; (20)..(20) Xaa at positi) [Peptide 209]  5.12
5. Y-Aib-EGT-αMeF(2F)-TSDYSI-αMeL-LDEK((2-[2-(2-Amino-ethoxy)-ethoxy]-acetyl)2-CO—(CH2)16—CO2H)AQ-Aib-EFI-(D-Glu)-YLIEGGPSSGAPPPS-NH2 (YXEGTXTSDYSIXLDEKAQXEFIXYLIEGGPSSGAPPPS; Aib, αMeF(2F), αMeL, D-Glu; lipidated K; amide; (2)..(2) Xaa at position 2 is Aib; (6)..(6) Xaa at position 6 is alpha-methyl-Phe(2F); (13)..(13) Xaa at position 13 is alpha-methyl-Leu; MOD_RES (17)..(17) Lys at position 17 is chemically modified by conjugation of the epsilon-amino group of the Lys side chain with (2-[2-(2-amino-ethoxy)-ethoxy]-acetyl)2-CO-(CH2)16-CO2H; (20)..(20) Xaa at position 20 is Aib; (24)..(24) Xaa at position 24 is D-Gl) [Peptide 214]  3.98
6. Y-Aib-EGT-αMeF(2F)-TSDYSI-αMeL-LD-Orn-K((2-[2-(2-Amino-ethoxy)-ethoxy]-acetyl)2-(γGlu)-CO—(CH2)18—CO2H)AQ-Aib-EFI-(D-Glu)-YLIEGGPSSGAPPPS-NH2 (YXEGTXTSDYSIXLDXKAQXEFIXYLIEGGPSSGAPPPS; Aib, Orn, αMe residues, lipidated Lys, D-Glu, amide; (2)..(2) Xaa at position 2 is Aib; (6)..(6) Xaa at position 6 is alpha-MeF(2F); (13)..(13) Xaa at position 13 is alpha-MeL; (16)..(16) Xaa at position 16 is Orn; MOD_RES (17)..(17) K at position 17 is chemically modified by conjugation of the epsilon-amino group of the K side chain with (2-[2-(2-amino-ethoxy)-ethoxy]-acetyl)2-(gamma-Glu)-CO-(CH2)18- CO2H; (20)..(20) Xaa at position 20 is Aib; (24)) [Peptide 3]  3.61
7. Y-Aib-EGTFTSDYSI-αMeL-LDKIAQ-Aib-AFIEYLIK((2-[2-(2-Amino-ethoxy)-ethoxy]-acetyl)2-(γGlu)-CO—(CH2)18—CO2H)GG-NH2 (YXEGTFTSDYSIXLDKIAQXAFIEYLIKGG; Aib, αMeL; K lipidated C20 diacid-γGlu-AEEA2; C-terminal amide; (2)..(2) Xaa at position 2 is Aib; (13)..(13) Xaa at position 13 is alpha-methyl-Leu; (20)..(20) Xaa at position 20 is Aib; MOD_RES (28)..(28) Lys at position 28 is chemically modified by conjugation of the epsilon-amino group of the Lys side chain with (2-[2-(2-amino-ethoxy)-ethoxy]-acetyl)2-(gamma-Glu)-CO-(CH2)18- CO2H; MOD_RES (30)..(30) Gly at position 30 is amidated) [Peptide 97]  3.56
8. Y-Aib-EGT-αMeF-TSDYSI-αMeL-LDKK((2-[2-(2-Amino-ethoxy)-ethoxy]-acetyl)2-(γGlu)-CO—(CH2)18—CO2H)AQ-Aib-EFI-(D-Glu)-YLIEGGPSSG-NH2 (YXEGTXTSDYSIXLDKKAQXEFIXYLIEGGPSSG; Aib, αMe, D-Glu, C20 diacid lipidation, C-amide; (2)..(2) Xaa at position 2 is Aib; (6)..(6) Xaa at position 6 is alpha-methyl-Phe; (13)..(13) Xaa at position 13 is alpha-methyl-Leu; MOD_RES (17)..(17) Lys at position 17 is chemically modified by conjugation of the epsilon-amino group of the Lys side chain with (2-[2-(2-amino-ethoxy)-ethoxy]-acetyl)2-(gamma-Glu)-CO-(CH2)18- CO2H; (20)..(20) Xaa at position 20 is Aib; (24)..(24) Xaa at position 2) [Peptide 228]  3.51
9. Y-Aib-EGT-αMeF(2F)-TSD-4Pal-SI-αMeL-LD-Orn-K((2-[2-(2-Amino-ethoxy)-ethoxy]-acetyl)2-(γGlu)-CO—(CH2)16—CO2H)AQ-Aib-EFI-(D-Glu)-αMeY-LIEGGPSSG-NH2 (YXEGTXTSDXSIXLDXKAQXEFIXXLIEGGPSSG; Aib, αMeF(2F), 4Pal, αMeL, Orn, αMeY, D-Glu; C18 diacid lipidation; amide; (2)..(2) Xaa at position 2 is Aib; (6)..(6) Xaa at position 6 is alpha-methyl-Phe(2F); (10)..(10) Xaa at position 10 is 4Pal; (13)..(13) Xaa at position 13 is alpha-methyl-Leu; (16)..(16) Xaa at position 16 is Orn; MOD_RES (17)..(17) Lys at position 17 is chemically modified by conjugation of the epsilon-amino group of the Lys side chain with (2-[2-(2-amino-ethoxy)-ethoxy]-acetyl)2-(gamma-Glu)-CO-) [Peptide 264]  2.63
